Data from paper PMC4509936 (RNA, 2015).

How the values were obtained:
[1] = target: T1, BMV 1a protein, carboxy-terminal flag-tagged version (Brome mosaic virus, UniProt P03588 1-961); assay: co-IP
T1 sequence (looked up): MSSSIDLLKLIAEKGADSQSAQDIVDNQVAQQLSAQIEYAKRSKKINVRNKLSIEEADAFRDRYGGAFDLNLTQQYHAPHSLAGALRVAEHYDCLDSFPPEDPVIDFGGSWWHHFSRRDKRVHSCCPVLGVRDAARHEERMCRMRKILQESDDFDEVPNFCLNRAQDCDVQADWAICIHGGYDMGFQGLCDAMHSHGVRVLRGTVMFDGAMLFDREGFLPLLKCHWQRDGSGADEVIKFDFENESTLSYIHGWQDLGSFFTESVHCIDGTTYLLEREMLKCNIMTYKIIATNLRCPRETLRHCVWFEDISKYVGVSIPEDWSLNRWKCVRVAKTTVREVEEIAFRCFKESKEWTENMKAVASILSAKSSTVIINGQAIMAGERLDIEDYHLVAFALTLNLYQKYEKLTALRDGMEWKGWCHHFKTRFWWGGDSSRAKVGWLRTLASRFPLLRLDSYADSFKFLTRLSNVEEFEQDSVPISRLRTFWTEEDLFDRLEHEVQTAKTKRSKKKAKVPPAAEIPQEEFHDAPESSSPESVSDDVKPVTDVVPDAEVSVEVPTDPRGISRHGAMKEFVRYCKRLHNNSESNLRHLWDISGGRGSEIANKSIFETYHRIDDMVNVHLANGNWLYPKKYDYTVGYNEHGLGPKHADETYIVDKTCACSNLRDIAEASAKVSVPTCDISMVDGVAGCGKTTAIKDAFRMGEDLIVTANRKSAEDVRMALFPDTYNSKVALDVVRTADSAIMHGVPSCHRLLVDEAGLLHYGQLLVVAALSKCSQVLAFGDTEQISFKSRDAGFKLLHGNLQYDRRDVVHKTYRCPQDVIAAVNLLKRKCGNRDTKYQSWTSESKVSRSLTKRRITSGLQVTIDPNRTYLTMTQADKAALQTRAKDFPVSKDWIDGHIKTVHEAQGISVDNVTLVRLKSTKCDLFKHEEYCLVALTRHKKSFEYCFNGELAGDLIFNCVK

[2] = target: T1, BMV 1a protein, carboxy-terminal …; assay: co-IP; remark: listed apart in the source

B1: Pat1 (natural protein, S. cerevisiae (endogenous in YPH500), UniProt P25644 1-796, looked up)
chain: MSFFGLENSGNARDGPLDFEESYKGYGEHELEENDYLNDETFGDNVQVGTDFDFGNPHSSGSSGNAIGGNGVGATARSYVAATAEGISGPRTDGTAAAGPLDLKPMESLWSTAPPPAMAPSPQSTMAPAPAPQQMAPLQPILSMQDLERQQRQMQQQFMNFHAMGHPQGLPQGPPQQQFPMQPASGQPGPSQFAPPPPPPGVNVNMNQMPMGPVQVPVQASPSPIGMSNTPSPGPVVGATKMPLQSGRRSKRDLSPEEQRRLQIRHAKVEKILKYSGLMTPRDKDFITRYQLSQIVTEDPYNEDFYFQVYKIIQRGGITSESNKGLIARAYLEHSGHRLGGRYKRTDIALQRMQSQVEKAVTVAKERPSKLKDQQAAAGNSSQDNKQANTVLGKISSTLNSKNPRRQLQIPRQQPSDPDALKDVTDSLTNVDLASSGSSSTGSSAAAVASKQRRRSSYAFNNGNGATNLNKSGGKKFILELIETVYEEILDLEANLRNGQQTDSTAMWEALHIDDSSYDVNPFISMLSFDKGIKIMPRIFNFLDKQQKLKILQKIFNELSHLQIIILSSYKTTPKPTLTQLKKVDLFQMIILKIIVSFLSNNSNFIEIMGLLLQLIRNNNVSFLTTSKIGLNLITILISRAALIKQDSSRSNILSSPEISTWNEIYDKLFTSLESKIQLIFPPREYNDHIMRLQNDKFMDEAYIWQFLASLALSGKLNHQRIIIDEVRDEIFATINEAETLQKKEKELSVLPQRSQELDTELKSIIYNKEKLYQDLNLFLNVMGLVYRDGEISELK
fold enrichment compared with “Flag only” control [1]: 4.5 fold | fold enrichment compared with “Flag only” controls [2]: 25 fold

B2: Lsm1 (natural protein, S. cerevisiae (endogenous in YPH500), UniProt P47017 1-172, looked up)
chain: MSANSKDRNQSNQDAKRQQQNFPKKISEGEADLYLDQYNFTTTAAIVSSVDRKIFVLLRDGRMLFGVLRTFDQYANLILQDCVERIYFSEENKYAEEDRGIFMIRGENVVMLGEVDIDKEDQPLEAMERIPFKEAWLTKQKNDEKRFKEETHKGKKMARHGIVYDFHKSDMY
fold enrichment compared with “Flag only” control [1]: 2 fold | fold enrichment compared with “Flag only” controls [2]: 7 fold
